Results taken from publication PMC10029155 (2023).
Where no end group is shown, it is not given here.

Each binder was assayed against cathepsin B (Homo sapiens, UniProt P07858) (assay: square wave voltammetry).

Question: SSTTNSNSTSNTK-biotin [CTSB BP3, listing 1 of 2 here] was tested. Which Kd did it give?
Answer: Its Kd is 50.8 nM.

Question: SSTTNSNSTSNTK-biotin [CTSB BP3, listing 2 of 2 here] was tested. Which Kd did it give?
Answer: Its Kd is 11.6 nM.

Question: With WDMWPSMDWKAE (also: displayed on M13 phage pIII) [CTSB 4-1 phage-displayed peptide] as the binder, how does the Kd read?
Answer: The Kd was 73.7 nM.
